Test results published in PMC2276247.

Target: Recombinant histidine-tagged human WRN (human) (UniProt Q14191)
Sequence (Q14191 whole entry): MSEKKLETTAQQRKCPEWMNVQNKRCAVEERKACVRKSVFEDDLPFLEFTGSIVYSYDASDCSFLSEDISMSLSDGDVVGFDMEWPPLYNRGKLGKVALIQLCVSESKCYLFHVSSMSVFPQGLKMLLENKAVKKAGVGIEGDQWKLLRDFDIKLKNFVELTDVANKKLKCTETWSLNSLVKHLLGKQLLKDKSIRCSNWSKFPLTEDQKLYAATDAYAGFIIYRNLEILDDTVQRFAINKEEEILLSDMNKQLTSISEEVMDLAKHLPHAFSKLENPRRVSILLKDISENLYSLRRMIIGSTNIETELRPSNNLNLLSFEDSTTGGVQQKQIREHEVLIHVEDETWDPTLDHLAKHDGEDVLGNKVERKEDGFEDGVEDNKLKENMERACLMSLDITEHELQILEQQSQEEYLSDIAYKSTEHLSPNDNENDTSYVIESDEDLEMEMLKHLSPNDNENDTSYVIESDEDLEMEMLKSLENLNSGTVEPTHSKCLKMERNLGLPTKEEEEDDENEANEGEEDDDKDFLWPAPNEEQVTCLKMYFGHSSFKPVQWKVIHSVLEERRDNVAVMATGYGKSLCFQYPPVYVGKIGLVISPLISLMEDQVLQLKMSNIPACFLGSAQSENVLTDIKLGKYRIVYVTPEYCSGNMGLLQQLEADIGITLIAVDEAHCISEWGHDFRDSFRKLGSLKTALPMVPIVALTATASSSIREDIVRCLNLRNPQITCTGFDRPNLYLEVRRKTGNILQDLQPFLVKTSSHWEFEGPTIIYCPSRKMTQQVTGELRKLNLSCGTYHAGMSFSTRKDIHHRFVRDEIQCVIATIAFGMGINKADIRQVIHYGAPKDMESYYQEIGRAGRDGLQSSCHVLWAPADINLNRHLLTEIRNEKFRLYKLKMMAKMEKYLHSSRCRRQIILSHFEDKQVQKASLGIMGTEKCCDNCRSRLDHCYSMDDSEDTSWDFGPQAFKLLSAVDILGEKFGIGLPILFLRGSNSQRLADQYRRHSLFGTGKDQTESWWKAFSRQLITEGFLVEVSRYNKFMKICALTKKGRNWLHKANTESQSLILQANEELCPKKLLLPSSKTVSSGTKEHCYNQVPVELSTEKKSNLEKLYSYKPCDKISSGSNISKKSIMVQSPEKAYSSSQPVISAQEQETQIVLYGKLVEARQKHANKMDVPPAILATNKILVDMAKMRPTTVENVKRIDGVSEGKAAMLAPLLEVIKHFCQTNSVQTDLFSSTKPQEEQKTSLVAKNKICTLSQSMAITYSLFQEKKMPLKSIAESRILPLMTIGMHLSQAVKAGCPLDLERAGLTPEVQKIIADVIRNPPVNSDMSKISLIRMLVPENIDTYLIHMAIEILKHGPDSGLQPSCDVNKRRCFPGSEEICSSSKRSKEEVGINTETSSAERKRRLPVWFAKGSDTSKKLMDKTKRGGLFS

## recombinant human p300 (histone acetyltransferase enzyme p300), Q09472 1-2414
  WRN helicase activity on a 22 bp forked duplex with p300 in the absence of acetyl CoA, at the highest WRN concentration: 2 fold
